# Measurements from patent US20250382386A1 (KINTOR PHARMACEUTICAL GUANGDONG, published 2025).
# Numbering of substitutions follows the chain as printed. Like-named read-outs stand apart in the source and are kept apart here.
# B1: anti-ALK-1 antibody #1 (antibody, human IgG1, kappa, L234A L235A, V domains shown)
# VH: QVQLQESGPGLVKPSQTLSLTCTVSGGSISSGEYYWNWIRQHPGKGLEWIGYIYYSGSTYYNPSLKSRVTISVDTSKNQFSLKLSSVTAADTAVYYCARESVAGFDYWGQGTLVTVSS
# VL: EIVLTQSPGTLSLSPGERATLSCRASQSVSSSYLAWYQQKPGQAPRLLIYGTSSRATGIPDRFSGSGSGTDFTLTISRLEPEDFAVYYCQGYGSFPITFGQGTRLEIKR
# B2: anti-ALK-1 antibody #3 (antibody, human IgG1, kappa, L234A L235A, V domains shown)
# VH: B1 VH
# VL: B1 VL with G91L
# B3: anti-ALK-1 antibody #9 (antibody, human IgG1, kappa, L234A L235A, V domains shown)
# VH: B1 VH
# VL: B1 VL with G91I, F95W
# B4: anti-ALK-1 antibody #12 (antibody, human IgG1, kappa, L234A L235A, V domains shown)
# VH: B1 VH
# VL: B1 VL with G91I, F95I
# B5: anti-ALK-1 antibody #14 (antibody, human IgG1, kappa, L234A L235A, V domains shown)
# VH: B1 VH
# VL: B1 VL with G91M, F95W
# B6: anti-ALK-1 antibody #18 (antibody, human IgG1, kappa, L234A L235A, V domains shown)
# VH: B1 VH
# VL: B1 VL with G91A, F95W
# notes: the rest as BM; also called #18 mutant; ALK-1 mAb (#18 mutant)
# B7: anti-ALK-1 antibody #19 (antibody, human IgG1, kappa, L234A L235A, V domains shown)
# VH: B1 VH
# VL: B1 VL with G91F, F95W
# B8: anti-ALK-1 antibody #25 (antibody, human IgG1, kappa, L234A L235A, V domains shown)
# VH: B1 VH
# VL: B1 VL with G91V, F95W
# B9: anti-ALK-1 antibody #26 (antibody, human IgG1, kappa, L234A L235A, V domains shown)
# VH: B1 VH
# VL: B1 VL with G91V, F95V
# B10: anti-ALK-1 antibody #27 (antibody, human IgG1, kappa, L234A L235A, V domains shown)
# VH: B1 VH
# VL: B1 VL with F95W
# B11: anti-ALK-1 antibody #28 (antibody, human IgG1, kappa, L234A L235A, V domains shown)
# VH: B1 VH
# VL: B1 VL with G91I, F95V
# B12: Bevacizumab (antibody, V domains shown)
# VH: EVQLVESGGGLVQPGGSLRLSCAASGYTFTNYGMNWVRQAPGKGLEWVGWINTYTGEPTYAADFKRRFTFSLDTSKSTAYLQMNSLRAEDTAVYYCAKYPHYYGSSHWYFDVWGQGTLVTVSS
# VL: DIQMTQSPSSLSASVGDRVTITCSASQDISNYLNWYQQKPGKAPKVLIYFTSSLHSGVPSRFSGSGSGTDFTLTISSLQPEDFATYYCQQYSTVPWTFGQGTKVEIK
# notes: Bought control antibody (Biointron, B7424); also called Avastin; VEGF-A monoclonal antibody (Bevacizumab)
# Columns and labels:
# [1] = molecular target: T1, human ALK-1 on cells (CHO-K1-hALK-1 cells; HUVEC; A172) (human, UniProt P37023 22-503); test: cell-based or functional assay
# [2] = molecular target: T1, human ALK-1 on cells (CHO-K1-hALK-1 …); test: cell-based or functional assay; remark: listed apart in the source
# [3] = molecular target: T1, human ALK-1 on cells (CHO-K1-hALK-1 …); test: flow cytometry on CHO-K1-hALK-1 cells, MFI; VEGF 165-biotin and APC-anti-human IgG mAb added after the antibody
# [4] = molecular target: T1, human ALK-1 on cells (CHO-K1-hALK-1 …); test: flow cytometry on CHO-K1-ALK-1 cells, MFI; detection with human PD-1-PE and PE anti-human IgG Fc antibody 'respectively'
# [5] = molecular target: T1, human ALK-1 on cells (CHO-K1-hALK-1 …); test: cell-based or functional assay; remark: listed apart in the source
# [6] = molecular target: T1, human ALK-1 on cells (CHO-K1-hALK-1 …); test: flow cytometry on CHO-K1-hALK-1 cells ('Binding affinity to CHO-ALK1'), MFI; method as for FIG. 3
# [7] = molecular target: T1, human ALK-1 on cells (CHO-K1-hALK-1 …); test: cell-based or functional assay; remark: listed apart in the source
# [8] = molecular target: T1, human ALK-1 on cells (CHO-K1-hALK-1 …); test: cell-based or functional assay; remark: listed apart in the source
# [9] = molecular target: T1, human ALK-1 on cells (CHO-K1-hALK-1 …); test: flow cytometry on CHO-K1-hALK-1 cells, MFI
Binder,IC50 of blocking BMP9-induced Smad1 phosphorylation in HUVEC cells (ELISA kit) [1] [nM],other results
B1,5.8,–
B2,5.3,–
B3,11.6,–
B4,11.2,–
B5,11.1,–
B6,8.2,"IC50; blocking of BMP9-induced Smad1 phosphorylation, pSmad1 ELISA assay in A172 cell line (right panel), OD 450 [2]: 2.39 nM; IC50; blocking of BMP9-induced Smad1 phosphorylation, pSmad1 ELISA assay in HUVEC (left panel), OD 450 [2]: 26.3 nM; EC50 [3]: 1.85 nM; EC50 [4]: 1.85 nM; IC50; blocking of BMP9-induced Smad1 phosphorylation, pSmad1 ELISA assay in HUVEC, OD450 [5]: 26.3 nM; EC50 [6]: 0.447 nM; IC50; blocking of BMP9-induced Smad1 phosphorylation, pSmad1 ELISA assay in HUVEC, OD450 [7]: 20.9 nM; IC50; blocking of BMP9-induced Smad1 phosphorylation, pSmad1 ELISA assay in A172 cell line, OD 450 [8]: 2.39 nM"
B7,5.2,–
B8,9.1,–
B9,12.4,–
B10,6.3,–
B11,6.9,–
B12,–,binding result [9]: no binding (tested: about 50 nM)
